In publication PMC2171753 (The Journal of Cell Biology, 2005):
Positions count from the first letter of the chain named. In names and notes the source's numbering stands.

B1: APC-GFP fusion construct, APC residues 2782–2831 (domain or fragment, human, UniProt P25054 2782-2831, looked up)
chain: TPFNYNPSPRKSSADSTSARPSQIPTPVNNNTKKRDSKTDSTESSGTQSP
B2: full-length EB1 F216A (natural protein, human, UniProt Q15691 1-268, looked up)
chain: MAVNVYSTSVTSDNLSRHDMLAWINESLQLNLTKIEQLCSGAAYCQFMDMLFPGSIALKKVKFQAKLEHEYIQNFKILQAGFKRMGVDKIIPVDKLVKGKFQDNFEFVQWFKKFFDANYDGKDYDPVAARQGQETAVAPSLVAPALNKPKKPLTSSSAAPQRPISTQRTAAAPKAGPGVVRKNPGVGNGDDEAAELMQQVNVLKLTVEDLEKERDAYFGKLRNIELICQENEGENDPVLQRIVDILYATDEGFVIPDEGGPQEEQEEY
B3: full-length EB1 Y217A (natural protein, human, UniProt Q15691 1-268, looked up)
chain: B2 chain with A216F, Y217A
B4: full-length EB1 E225A (natural protein, human, UniProt Q15691 1-268, looked up)
chain: B2 chain with A216F, E225A
B5: full-length EB1 K220A (natural protein, human, UniProt Q15691 1-268, looked up)
chain: B2 chain with A216F, K220A
B6: full-length EB1 F218A (natural protein, human, UniProt Q15691 1-268, looked up)
chain: B2 chain with A216F, F218A
B7: GST-EB1_(185-255) (domain or fragment, human, UniProt Q15691 185-255, looked up)
chain: GVGNGDDEAAELMQQVNVLKLTVEDLEKERDFYFGKLRNIELICQENEGENDPVLQRIVDILYATDEGFVI

Columns and labels:
[1] = molecular target: B7; assay: pull-down
[2] = molecular target: the molecule itself; assay: SEC
[3] = molecular target: GFP-APC_(2744-2843) (human, UniProt P25054 2744-2843); assay: pull-down
GFP-APC_(2744-2843), sequence (P25054 2744-2843): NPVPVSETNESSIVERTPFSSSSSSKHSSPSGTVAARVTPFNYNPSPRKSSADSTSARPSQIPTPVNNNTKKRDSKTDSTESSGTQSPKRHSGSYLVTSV

[4] = molecular target: APC-GFP fusion construct, APC residues 2739–2831 (human, UniProt P25054 2739-2831); assay: pull-down
[5] = molecular target: APC-GFP fusion construct, APC residues 2760–2831 (human, UniProt P25054 2760-2831); assay: pull-down

Row | Binder | stoichiometry N [2] | also measured
1 | B1 |  | binding result [1]: binds
2 | B2 | 2 | 
3 | B3 | 2 | 
4 | B4 | 2 | 
5 | B5 | 2 | 
6 | B6 | 2 | 
7 | B7 |  | binding result [3]: binds; binding result [4]: binds; binding result [5]: binds
